B1: PRT-549 (protein)
chain: MANQEIRYSEDTPSHITSVWTKGVTPPTQFIQNEDVLHAPYIANQGWYDITKTFNGKDDLLCGAATAGNMLHWWFDQNKEQIEAYLKKYPEKQKINFNGEQMFDVKEAIDTKDSQTDSALFNYFKDKAFPYLSTKHLGVFPDHVIDMFINGYRLSLTNHGPTPVKNQTKDPRGGIFDAVFTRGDQSKLLTARHDFKEKTLKEISQLIKQELTEGKALGLSHTYANVRINHVINLWGADFNAEGNLEAIYVTDSDSNASIGMKKYYVGVNAAGKVAISAKEIEGDNIGAQVLGLFTLSTGQDIWQQTNLEHHHHHH
B2: PRT-623 (protein)
chain: MQITTVWTKGVTPLTPEQFRYNNEDVIHAPYLAHQGWYDITKAFDGKDNLLCGAATAGNMLHWWFDQNKTEIEAYLSKHPEKQKIIFNNQELFDLKAAIDTKDSQTNSQLFNYFRDKAFPNLSARQLGVMPDLVLDMFINGYYLNVFKTQSTDVNRPYQDKDKRGGIFDAVFTRGDQTTLLTARHDLKNGTLNEISQIIKQELQSGRALALSHTYANVSISHVINLWGADFNAEGNLIAIYVTDSDANASIGMKKYFVGINAHGHVAISAKKIEGENIGAQVLGLFTLSSGKDIWQKLSLEHHHHHH
B3: PRT-621 (protein)
chain: MQITSVWTKGVTPLTPEQFRYNNEDVIHAPYLAHQGWYDITKAFDGKDNLLCGAATAGNMLHWWFDQNKTEIEAYLSKHPEKQKIIFNNQELFDLKAAIDTKDSQTNSQLFNYFRDKAFPNLSARQLGVMPDLVLDMFINGYYLNVFKTQSTDVNRPYQDKDKRGGIFDAVFTRGDQTTLLTARHDLKNKTLNEISQIIKQELSSGRALALSHTYANVSISHVINLWGADFNAEGNLEAIYVTDSDANASIGMKKYFVGINAHGHVAISAKKIEGENIGAQVLGLFTLSSGKDIWQKLSLEHHHHHH
B4: PRT-692 (protein)
chain: MQITSVWTKGVTPPTPEQFRYNNEDVIHAPYLPNQGWYDITKTFNGGDNLLCGAATAGNMLHWWFDQNKTEIEAYLSKYPEKQKIIFNNQELFDLRAAINSKDSQTNSQLFNYFRDKAFPNLSARQLGVMPDLVLDMFINGYYLNVFKTQSTDVNRPYQDPDKRGGIFDDVFKEGDQTTLLTARHDLKNGTLNDISTLIKQELQSGKALALSHTYANVSISHVINLWGADFNAEGNLEAIYVTDSDANQSIGMKKYKVGVNAHGKVAISAKKIEGENIGAQVLGLFTLSSGKEIWQKLSLEHHHHHH
B5: PRT-637 (protein)
chain: MQITSVWTKGVTPLTPEQFRYNNEDVIHAPYLAHQGWYDITKAFDGGDGLLCGAATAGNMLHWWFDQNKTEIEAYLSKHPEKQKIIFNNQELFDLKAAIDTKDSQTNSQLFNYFRDKAFPNLSARQKGVMPDLVLDMFINGYYLNVFKTQSTDVNRPYQDKDKRGGIFDAVFTRGDQTTLLTARHDLKNKGLNDISTIIKQELTEGRALALSHTYANVSISHVINLWGADFNAEGNLEAIYVTDSDAGNGIGMKKYFVGINAHGHVAISAKKIEGENIGAQVLGLFTLSSGKDIWQKLSLEHHHHHH
B6: PRT-644 (protein)
chain: MQITSVWTKGVTPLTPEQFRYNNEDVIHAPYLAHQGWYDITKAFDGKDNLLCGAATAGNMLHWWFDQNKTEIEAYLSKHPEKQKIIFNNQELFDLKAAIDTKDSQTNSQLFNYFRDKAFPNLSARQLGVMPDLVLDMFINGYYLNVFKTQSTDVNRPYQDKDKRGGIFDAVFTRGDQTTLLTARHDLKNKGLNDISTIIKQELTEGRALALSHTYANVSISHVINLWGADFNAEGNLEAIYVTDSDANASIGMKKYYVGKNASGHVAISAKKIEDENIGAQVLGLFTLSSGKDIWQKLSLEHHHHHH
B7: PRT-650 (protein)
chain: MQITSVWTKGVTPLTPEQFRYNNEDVIHAPYLAHQGWYDITKAFDGKDNLLCGAATAGNMLHWWFDQNKTEIEAYLSKHPEKQKIIFNNQKLFDLKAAIDTKDSQTNSQLFNYFRDKAFPNLSARQLGVMPDLVLDMFINGYYLNVTKTQSTDVNRPYQTKDPRGGIFDAVFTRGDQTTLLTARHDLKNKGLNDISTIIKQELTEGRALALSHTYANVSISHVINLWGADFNAEGNLEAIYVTDSDANASIGMKKYFVGINAHGHVAISAKKIEGENIGAQVLGLFTLSSGKDIWQKLSLEHHHHHH
B8: PRT-647 (protein)
chain: MQITSVWTKGVTPLTPEQFRYNNEDVIHAPYLAHQGWYDITKAFDGKDNLLCGAATAGNMLHWWFDQNKTEIEAYLSKHPEKQKIIFNNQELFDLKAAIDTKDSQTNSQLFNYFRDKAFPNLSARQLGVMPDLVLDMFINGYYLNVFKTQSTDVNRPYQDKDKRGGIFDAVFTRGDQTTLLTNRYDLYDKGLNDISTIIKQELTEGRALALSHTYANVSISHVINLWGADFNAEGNLEAIYVTDSDANASIGMKKYFVGINAHGHVAISAKKIEGENIGAQVLGLFTLSSGKDIWQKLSLEHHHHHH
B9: PRT-625 (protein)
chain: MQITSVWTKGVTPLTPEQFRYNNEDVIHAPYLAHQGWYDITKAFDGKDNLLCGAATAGNMLHWWFDQNKTEIEAYLSKHPEKQKIIFNNQELFDLKAAIDTKDSQTNSQLFNYFRDKAFPNLSARQLGVMPDLVLDMFINGYYLNVFKTQSTDVNRPEDDKDKRGGIFDHVFTRGDQSTLLTARHDLKNKGLNDISTIIKQELTEGRALALSHTYANVSISHVINLWGADFNAEGNLEAIYVTDSDANASIGMKKYFVGINAHGHVAISAKKIEGENIGAQVLGLFTLSSGKDIWQKLSLEHHHHHH
B10: PRT-642 (protein)
chain: MQITSVWTKGVTPLTPEQFRYNNEDVIHAPYLAHQGWYDITKTFNRGDNLLCGAATAGNMLHWWFDQNKTEIEAYLSKHPEKQKIIFNNQELFDLKAAIDTKDSQTNSQLFNYFRDKAFPNLSARQGGVMPDLVLDMFINGYYLNVFKTQSTDVNRPYQDKDKRGGIFDAVFTRGDQTTLLTARHDLKNKGLNDISTIIKQELTEGRALALSHTYANVSISHVINLWGADFNAEGNLEAIYVTDSDADEKIGMKKYFVGINAHGHVAISAKKIEGENIGAQVLGLFTLSSGKDIWQKLSLEHHHHHH
B11: PRT-696 (protein)
chain: MTITSVWTKGVTPPTPEDFRYNNEDVLHAPYVPNQGWYDITKTFDGGDNLLCGAATAGNMLHWWFDQNKEEIERYLKKYPEKQKIIFNNQELFDVRAAINSKDSQTNSKLFNYFRDKAFPNLSARQLGVMPDLVLDMFINGYYLNLGKTQSTDVNRPYQDPDKRGGIFDDVFKEGDQTTLLTARHDLKNGGLNEISDLIKQELQSGKALALSHTYANVRINHVINLWGADFDAEGNLIAIYVTDSDANQSIGMKKYKVGVNANGKVAISAKKIEGDNIGAQVLGLFTLSTGQEIWQKLSLEHHHHHH
B12: PRT-657 (protein)
chain: MQITSVWTKGVTPLTPEQFRYNNEDVIHAPYLAHQGWYDITKAFDGKDNLLCGAATAGNMLHWWFDQNKTEIEAYLSKHPEKQKIIFNNQELFDLREAINTKDSQTDSKLFNYFRDKAFPNLSARQLGVMPDLVLDMFINGYYLNVFKTQSTDVNRPYQDKDKRGGIFDAVFTRGDQTTLLTARHDLKNKGLNDISTIIKQELTEGRALALSHTYANVSISHVINLWGADFNAEGNLEAIYVTDSDANASIGMKKYFVGINAHGHVAISAKKIEGENIGAQVLGLFTLSSGKDIWQKLSLEHHHHHH
B13: PRT-681 (protein)
chain: MQITSVWTKGVTPLTPEQFRYNNEDVIHAPYLAHQGWYDITKAFDGKDNLLCGAATAGNMLHWWFDQNKTEIEAYLSKYPEKQKIIFNNQELFDLRAAINTKDSQTNSQLFNYFRDKAFPNLSARQLGVMPDLVLDMFINGYYLNVFKTQSTDVNRPYQDKDKRGGIFDAVFTRGDQTTLLTARHDLKNKGLNDISTIIKQELTEGRALALSHTYANVSISHVINLWGADFNAEGNLEAIYVTDSDANASIGMKKYYVGINAHGHVAISAKKIEGENIGAQVLGLFTLSSGKEIWQKLSLEHHHHHH
B14: PRT-633 (protein)
chain: MQITSVWTKGVTPLTPEQFTNNNEDVIHAPYKANQGWYDITKAFDGKDNLLCGAATAGNMLHWWFDQNKTEIEAYLSKHPEKQKIIFNNQELFDLKAAIDTKDSQTNSQLFNYFRDKAFPNLSARQLGVMPDLVLDMFINGYYLNVFKTQSTDVNRPYQDKDKRGGIFDAVFTRGDQTTLLTARHDLKNKGLNDISTIIKQELTEGKALALSHTYANVSISHVINLWGADFNAEGNLEAIYVTDSDANASIGMKKYFVGINAHGHVAISAKKIEGENIGAQVLGLFTLSSGKDIWQKLSLEHHHHHH

Target: pooled human IgG (human IgG1, 2, 3 and 4)

| Protein | Enzyme Activity Endpoint Assay (purified): Fab′2 [ng/µL] | Enzyme Activity Endpoint Assay (purified): Fc [ng/µL] | Enzyme Activity Endpoint Assay (purified): IgG [ng/µL] | Enzyme Activity Endpoint Assay (purified): scIgG [ng/µL] |
| --- | --- | --- | --- | --- |
| B1 | 725 | 491 | 0 | 279 |
| B2 | 433 | 260 | 0 | 157 |
| B3 | 976 | 514 | 0 | 0 |
| B4 | 442 | 44 | 429 | 38 |
| B5 | 278 | 188 | 464 | 602 |
| B6 | 882 | 518 | 0 | 355 |
| B7 | 522 | 452 | 130 | 600 |
| B8 | 777 | 465 | 0 | 330 |
| B9 | 451 | 405 | 78 | 531 |
| B10 | 175 | 260 | 360 | 760 |
| B11 | 58 | 0 | 1020 | 19 |
| B12 | 430 | 250 | 0 | 0 |
| B13 | 915 | 492 | 0 | 0 |
| B14 | 749 | 429 | 0 | 0 |
